This assay concerns the target T1, SARS-COV-2 RBD (SARS-COV-2, UniProt P0DTC2 319-539).
T1 construct: also called WT RBD
The assay can be described thus: ELISA, RBD coated on plate. (In general: In an ELISA, binding on a coated surface is turned into a signal by an enzyme label.)

What is called EC50 is the concentration at which the effect is half-maximal.

B1: C1058 (antibody, V domains shown)
VH: EVQLVESGGGLVQPGGSLRLSCAASGIIVSSNYMNWVRQVPGKGLEWVSVLYSGGSTFYADSVRGRFTISRDNSKNTLFLQMNSLRPEDTAVYYCARDFREGAFDIWGQGTMVTV
VL: DIQLTQSPSFLSASVGDRVTITCRASQGISSYLAWYQQKPGKAPNLLIYAASTLQSGVPSRFSGSGSGTDFTLTISSLQPEDFATYYCQQLNSYSPLFGQGTRLEIK
Turning to B1, the EC50 turned out to be 2.13 ng/mL.

B2: C1059 (antibody, V domains shown)
VH: EVQLVESGGGLVQPGGSLRLSCAASGVTVSYNYMHWVRQAPGKGLEWVSVFFPGGSIFYADSVKGRFSISRDNSHNTLYLQMNNLRPEDTAVYYCARDFREGAIDLWGQGTMVTVSS
VL: DIQLTQSPSFLSASVEDRVTITCRASQGISSYLAWYQQKPGKAPKLLIYGASTLQSGVPSRFSGSGSGTEFTLTISSLQPEDSATYYCQQLNSYPPLFGQGTRLEIK
The molecule B2 registered an EC50 of 1.69 ng/mL.

B3: C1048 (antibody, V domains shown)
VH: EVQLVQSGAEVKKPGESLKISCKVSGYSFISHWIGWVRQMPGKGLEWMGIIYPGDSDTRYSPSFQGQVTISADKSISTAYLQWSSLKASDTAMYYCARRGASWELDYWGQGTLVTV
VL: QSVLTQPPSASGTPGQRVTISCSGSSSNIGSNPVSWYQQLPGPAPQLLIYGNDQRPSGVPDRFSGSKSGTSASLAISGLQSEDEADYYCAAWDDSLNGYVFGTGTKVTVL
B3 came in with an EC50 of 2.41 ng/mL.

B4: C1053 (antibody, V domains shown)
VH: EVQLLESGGGLVQPGGSLRLSCAASGFTFSSYAMNWVRQAPGKGLEWVSAISGSGGGTYYADSVKGRFTISRDNSKNTLYLQMDSLRAEDTAVYYCAKDVPIEQQLVPTFDYWGQGALVTVSS
VL: DIQMTQSPSSLSASVGDRVTITCRASQSISRYLNWYQQKPGKAPKLLIYGASSLQSGVPSRFSGSGSGTDFTLTISSLQPEDFATYWCQQSYSTLSITFGQGTRLEIK
For the molecule B4, the EC50 came to 4.13 ng/mL.

B5: C1054 (antibody, V domains shown)
VH: EVQLLESGGGLVQPGGSLRLSCVVSGFTFSSYAMNWVRQAPGKGLEWVSVIGGSGDGRYYADSVKGRFTISRDNSKNTLYLQMNSLRGDDTAVYYCARDVPVEQQLVPTFDYWGQGTLVTVSS
VL: DIQMTQSPSSLSASVGDRVTITCRASQSISRYLNWYQQKPGKAPKLLIYAASSLQSGVPSRFSGSGSGTEFTLTISSLQPEDFATYYCQQSYSTLSITFGQGTRLEIK
As to B5, the EC50 came to 1.64 ng/mL.

B6: C1050 (antibody, V domains shown)
VH: EVQLVESGGGLVQPGRSLRLSCAASGFTFDDYGMHWVRQAPGKGLEWVSGISWNGDSIGYADSVKGRFTISRDNAKTSLYLQMNRLRAEDTALYYCAKAASRSTRIGGAFDIWGQGTMVTVSS
VL: QSALTQPASVSGSPGQSITISCTGTSSDVGGYNLVSWYQQHPGKAPKLMIYEGSKRPSGVSNRFSGSKSGNTASLTISGLQAEDEADYYCCSYAYSFTNVFGTGTKVTV
The molecule B6 gave an EC50 of 2.78 ng/mL.

B7: C1051 (antibody, V domains shown)
VH: EVQLVESGGGLVQPGRSLRLSCVASGFTFDDYGLHWVRQAPGKGLEWVSGISWNSDSIGYADSVKGRFAISRDNARTSLYLQMNRLRAEDTALYYCAKAASRSTRIGGAFDIWGQGTMVTVSS
VL: QSALTQPASVSGSPGQSITISCTGTSSDVGGYNLVSWYQQYPGKAPKLMIYEDSKRPSGVSHRFSGSKSGNTASLTISGLQAEDEADYYCCSYAFSFTNVFGTGTKVTV
In turn, B7 showed an EC50 of 1.4 ng/mL.

B8: C1035 (antibody, V domains shown)
VH: EVQLVESGGGLIQPGGSLRLSCAASGLTVSRNYMNWVRQAPGKGLEWVSVMYSGGSTFYADSVKGRFTISRDNSKNTLYLQMNSLRAEDTAVYYCARESYGMDVWGQGTTVTVSS
VL: EIVLTQSPGTLSLSPGERATLSCRASQSFSSTYLAWYQQKPGQAPRLLIYGASSRATGIPDRFSGSGSGTDFTLTISRLEPEDFAVYYCQQYVTSPWTFGQGTKVEIK
As for B8, the EC50 turned out to be 2.05 ng/mL. This EC50 and that of the molecule before are within 1.5-fold of each other.

B9: C1036 (antibody, V domains shown)
VH: EVQLVESGGGLIQPGGSLRLSCAASGLIVSRNYMNWVRQVPGKGLEWVSVMYAGGSTFYADSVKGRFTISRDDSKNTLYLQMNSLRPEDTAVYYCARESYGMDVWGQGTTVTVSS
VL: EIVLTQSPGTLSLSPGERATLSCRASQSISSTYLAWYQQKPGQAPRLLIYGASSRATGIPDRFSGSGSGTDFTLTISRLEPEDFAVYYCQQYVTSPWTFGQGTKVEIK
On to B9, for which the EC50 was found to be 1.02 ng/mL.

B10: C1057 (antibody, V domains shown)
VH: QVQLVQSGAEVKKPGSSVKVSCKASGGTFTTYIISWVRQAPGQGLEWMGGISPMLGTANYAQKFQGGVTITADESTTTAYMEMSGLRSEDTAVYYCARAHMYCSDGSCYRQSGYFDSWGQGTLVTVSS
VL: QSALTQPRSVSGSPGQSVTITCTGTSSNVGGYKYVSWFQQHPGKAPKFLIYDVSERSSGVPDRFSGSKSGNTASLTISGLQAEDEADYYCCSYAGKYTVVFGGGTRLTV
B10 gave an EC50 of 2.12 ng/mL.

B11: C1049 (antibody, V domains shown)
VH: EVQLVQSGAEVKKPGESLKISCKSSGYSFISHWIGWVRQMPGKGLEWMGIIWPGDSDTRYSPSFQGQVTISVDKSITTVYLQWSSLKAADTAMYYCARRGSSWEVDYWGQGTLVTVSS
VL: not shown
Molecule B11 registered an EC50 of 2.81 ng/mL.

B12: C1046 (antibody, V domains shown)
VH: EVQLVQSGAEVKKPGESLKISCKGSGYSFTSYWIGWVRQMPGKGLEWMGIIYPGDSDTRYSPSFQGQVTISADKSISTAYLQWSSLKASDTAMYYCARMVTSGTYYYDNSGYSSSGPFDYWGQGTLVTVSS
VL: DIQLTQSPSSLSASVGDRVTITCRASQGISSALAWYQQKPGKAPKLLIYDASSLESGVPSRFSGSGSGTDFTLTISSLQPEDFATYYCQQFNNFGPGTKVDIK
B12 yielded an EC50 of 3.8 ng/mL.

B13: C1040 (antibody, V domains shown)
VH: QVQLVESGGGVVQPGRSLRLSCAASGFSFINYNMHWVRQAPGKGLEWVAVIWYDGSNKYYADSVKGRFTISRDNSKNTLYLQMNSLRVEDTAVYYCARDPAITEAEIDYWGQGTLVTVSS
VL: DVVMTQSPLSLPVTLGQAASISCRSSQSLVHSDGNTYLNWFQQRPGQSPRRLIYRVSNRDSGVPDRFSASGSGTDFTLKISRVEAEDVGVYYCMQGTHWPWTFGQGTKVEIK
B13 yielded an EC50 of 2.08 ng/mL.

B14: C1038 (antibody, V domains shown)
VH: QVQLVQSGAEVKKPGASVKVSCKASGYTFTSYYMHWVRQAPGQGLEWMGIINPSGGSTRYAQKFQGRVTMTRDTSTSTVYMELSSLRSEDTAVYYCAREGVGGTSYFDYWGQGTLVTVSS
VL: SYELTQPPSVSVAPGKTARITCGGNNIGSKSVHWYQQKPGQAPVLVVYDDSDRPSGIPERFSGSNSGNTATLTISRVEAGDEADYYCQVWDSSSDPYVFGTGTKVTVL
B14 displayed an EC50 of 2.46 ng/mL.

B15: C1039 (antibody, V domains shown)
VH: QVQLVQSGAEVKKPGASVKVSCKASGYTFTSHYMHWVRQAPGQGLEWMGIINPRTRYAQMFQGRVSMNRDTSTSTVYMELSSLTSEDTAVYYCAREGLGATAYFDYWGQGTLVTVSS
VL: SYELTQPPSVSVAPGKTAGITCGGSDIGSKSVHWYQQKPGQAPVLVVYDDSDRPSGIPERFSGSNSGNTATLTISRVEAGDEADYYCQVWDSSSDPYVFGTGTKVSVL
The molecule B15 registered an EC50 of 2.61 ng/mL.

B16: C1055 (antibody, V domains shown)
VH: QVQLVESGGGVVQPGRSLRLSCAASGFTFSTYGMNWVRQAPGKGLEWVALILYDGSDKYYADSVKSRFTISRDNSRNTLYLQMTSLRAEDTAVYYCAKALSSTYYYDASGPDAFDIWGQGTMVTVSS
VL: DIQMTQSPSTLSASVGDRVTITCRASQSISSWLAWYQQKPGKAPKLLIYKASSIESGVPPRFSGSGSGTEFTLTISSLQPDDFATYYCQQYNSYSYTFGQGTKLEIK
Regarding B16, a half-maximal response (EC50) required 2.71 ng/mL.

B17: C1047 (antibody, V domains shown)
VH: EVQLVQSGAEVKKPGESLKISCKGSGYSFISYWIVWVRQMPGKGLEWIGIIYPGDSDTIYSPSFQGQVTLSADKSISTAYLQWSSLKASDTAIYYCAKMVTSGTSYYETRGYASSGPFDNWGQGTLVTVSS
VL: DIQLTQSPSSLSASVGDRVTITCRASQGISSALAWYQQKPGKAPKLLIYDASSLESGVPSRFSGSGSGTDFTLTISSLQPEDFATYYCQQSDNFGPGTKVDI
B17 yielded an EC50 of 2.46 ng/mL.

B18: C1052 (antibody, V domains shown)
VH: QVQLVQSGAEVKKPGASVKVSCKVSGYTLSELSMHWVRQAPGEGLEWLGGFDPEDGETINAQKFQGRVTMTEDRSTDTAYMELSSLRSEDTAVYYCATRGRYCSSGNCYYHHWGQGTLVTVSS
VL: DIQMTQSPSTLSASVGDRVIITCRASQNIHNWLAWYQQKPGKAPKLLIYKASSLESGVPSRFSGSGSGTEFTLTISSLQPDDFATYFCQQYHSYSWTFGQGTKVEIK
Turning to B18, the 50% effective concentration (EC50) was determined as 2.64 ng/mL.

B19: C1043 (antibody, V domains shown)
VH: EVQLVESGGGLVQPGRSLRLSCAASGFIFDNYAMHWVRQAPGKGLEWVSGISWNSDSIGYADSVKGRFTISRDNAKNSLYLQMSSLRAEDTALYYCAKDLLGNYYYYTLDVWGQGTTVTVSS
VL: QSALTQPASVSGSPGQSITISCTGTSSDIGGNNYVSWYQQHPGKAPRLMIFDVSYRPSGVSNRFSGSKSGNTASLTISGLQAEDEADYYCISYTTSSTLGVFGGGTKLTVL
As to B19, the EC50 is 2.77 ng/mL.

B20: C1060 (antibody, V domains shown)
VH: EVQLVESGGDLVQPGGSLRLSCAASEIIVSRNYMNWVRQAPGKGLEWVSIIYSGGSTFYGDSVKGRFTISRDSSKNTLYLQMHGLRVEDTAIYYCARSYGDYYIDYWGQGTLVTVSS
VL: DIQMTQSPSSVSASVGDRVTITCRTSQSISTSLAWYQQKPGKAPKLLIYAASSLQRGVPSRFSGTGSGTDFTLTISSLQPEDFATYYCQQSSSSPPLFTFGPGTKVDIK
Molecule B20 came in with an EC50 of 2.67 ng/mL.

B21: C1044 (antibody, V domains shown)
VH: QVQLQESGPGLVKPSQTLSLTCTVSGGSISSGNYYLTWIRQPAGKGLEWIGHIYTSGSTNYNPSLKSRVTISVDTSMNQFSLKLSSVTAADTAVYYCARDIPPTWYFDLWGRGTLVTVSS
VL: SYELTQPPSVSVAPGKTARITCGGNNIGSKNVHWYQQKPGQAPVLVVYDDSDRPSGIPERFSGSNSGNTATLTISRVEAGDEAGYYCQVWDSTSDHLFWVFGGGTKLTVL
On to B21, for which the EC50 amounted to 3.22 ng/mL.

B22: C1045 (antibody, V domains shown)
VH: QVQLQESGPGLVKPSQTLSLTCTVSGDSISSGNYYWSWIRQPAGKGLEWIGHIYTSGSPNYKPSLKSRVTISLDTSKNQFSLKLTSVTAADTAMYYCARDIPSTWYFDLWGRGTLVTVSS
VL: SYELTQPPSVSVAPGKTARIPCGGTDIGSKNVHWYQQKPGQAPVLAVYDDSDRPSGIPERFSGSNSGSTATLTISRVEAGDEADYYCQVWDSSGDRLSWVFGGGTKLTVL
The molecule B22 had an EC50 of 2.57 ng/mL. This EC50 and that of the molecule before are within 1.5-fold of each other.
